Results as given in paper PMC3585228, “Consequences of ChemR23 Heteromerization with the Chemokine Receptors CXCR4 and CCR7” (PLoS ONE, 2013).

B1: CCL19 (unlabelled) (ligand, UniProt Q99731 22-98, looked up)
chain: GTNDAEDCCLSVTQKPIPGYIVRNFHYLLIKDGCRVPAVVFTTLRGRQLCAPPDQPWVERIIQRLQRTSAKMKRRSS
notes: chemokine CCL19, the CCR7-specific ligand
B2: ChemR23-hRLuc / ChemR23-EYFP (receptor, human, UniProt Q99788 1-373, looked up)
chain: MRMEDEDYNTSISYGDEYPDYLDSIVVLEDLSPLEARVTRIFLVVVYSIVCFLGILGNGLVIIIATFKMKKTVNMVWFLNLAVADFLFNVFLPIHITYAAMDYHWVFGTAMCKISNFLLIHNMFTSVFLLTIISSDRCISVLLPVWSQNHRSVRLAYMACMVIWVLAFFLSSPSLVFRDTANLHGKISCFNNFSLSTPGSSSWPTHSQMDPVGYSRHMVVTVTRFLCGFLVPVLIITACYLTIVCKLQRNRLAKTKKPFKIIVTIIITFFLCWCPYHTLNLLELHHTAMPGSVFSLGLPLATALAIANSCMNPILYVFMGQDFKKFKVALFSRLVNALSEDTGHSSYPSHRSFTKMSSMNERTSMNERETGML
notes: ChemR23, the receptor of chemerin; cDNA in pcDNA3.1, fusion at its 3' end; Two constructs, each with ONE of the two fusions: ChemR23-hRLuc (BRET donor) and ChemR23-EYFP (BRET acceptor); source: HEK-293T, transfected (calcium phosphate), in living cells; not shown: hRLuc (humanized Renilla luciferase), C-terminal, kept; EYFP, C-terminal, kept

What was measured:
CCR7 on CHO-K1 cells [1] = target: T1, CCR7 on CHO-K1 cells (human, UniProt P32248 25-378); assay: radioligand binding; competition on CHO-K1 cells co-expressing ChemR23 and CCR7; tracer 0.1 nM 125I-CCL19; competitors CCL19 (homologous) or chemerin (heterologous, cross-competition); same buffer, one hour, filtration; settings: one partner purified
T1 construct: chemokine receptor CCR7; source: CHO-K1, stably expressing, alone or co-expressed with ChemR23 (clone 26); membrane preparations or cells
T1 sequence (looked up): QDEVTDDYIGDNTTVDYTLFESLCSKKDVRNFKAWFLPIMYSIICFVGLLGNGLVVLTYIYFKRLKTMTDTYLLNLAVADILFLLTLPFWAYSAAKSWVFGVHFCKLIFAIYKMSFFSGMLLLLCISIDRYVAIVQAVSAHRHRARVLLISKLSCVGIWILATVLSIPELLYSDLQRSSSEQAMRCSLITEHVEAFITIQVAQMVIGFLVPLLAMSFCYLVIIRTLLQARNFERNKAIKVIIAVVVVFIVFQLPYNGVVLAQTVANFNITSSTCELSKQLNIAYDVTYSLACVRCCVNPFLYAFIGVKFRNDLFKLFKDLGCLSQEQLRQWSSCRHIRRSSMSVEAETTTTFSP

CCR7 on CHO-K1 cells [2] = target: T1, CCR7 on CHO-K1 cells; assay: radioligand binding; competition on CHO-K1 cells co-expressing ChemR23 and CCR7; tracer 0.1 nM 125I-[145-157]-chemerin; competitors chemerin (homologous) or CCL19 (heterologous, cross-competition); same buffer, one hour, filtration; settings: one partner purified
CCR7 on CHO-K1 cells [3] = target: T1, CCR7 on CHO-K1 cells; assay: radioligand binding; competition on CHO-K1 cells expressing CCR7 only (methods: membrane preparations); tracer 0.1 nM 125I-CCL19; 50 mM Hepes pH 7.4, 1 mM CaCl2, 5 mM MgCl2, 0.5% BSA; one hour; filtration; settings: one partner purified
CCR7 on CHO-K1 cells [4] = target: T1, CCR7 on CHO-K1 cells; assay: cell-based or functional assay
CXCR4-hRLuc / CXCR4-EYFP = target: T2, CXCR4-hRLuc / CXCR4-EYFP (human, UniProt P61073 1-352); assay: FRET or BRET; BRET titration in HEK293T cells: constant amount of the hRLuc donor construct, increasing amounts of the EYFP acceptor construct; signal recorded 5 minutes after coelenterazine H; settings: partners not purified
T2 construct: chemokine receptor CXCR4; cDNA in pcDNA3.1, fusion at its 3' end; Two constructs, each with ONE of the two fusions: CXCR4-hRLuc (donor) and CXCR4-EYFP (acceptor); source: HEK-293T, transfected (calcium phosphate), in living cells; not shown: hRLuc (humanized Renilla luciferase), C-terminal, kept; EYFP, C-terminal, kept

CCR7-hRLuc / CCR7-EYFP = target: T3, CCR7-hRLuc / CCR7-EYFP (human, UniProt P32248 25-378); assay: as above; settings: partners not purified
T3 construct: chemokine receptor CCR7; cDNA in pcDNA3.1, fusion at its 3' end; Two constructs, each with ONE of the two fusions: CCR7-hRLuc (donor) and CCR7-EYFP (acceptor); source: HEK-293T, transfected (calcium phosphate), in living cells; not shown: hRLuc (humanized Renilla luciferase), C-terminal, kept; EYFP, C-terminal, kept
T3 sequence (looked up): T1 sequence (looked up)

T2 sequence (P61073 whole entry, the tested form may be a part): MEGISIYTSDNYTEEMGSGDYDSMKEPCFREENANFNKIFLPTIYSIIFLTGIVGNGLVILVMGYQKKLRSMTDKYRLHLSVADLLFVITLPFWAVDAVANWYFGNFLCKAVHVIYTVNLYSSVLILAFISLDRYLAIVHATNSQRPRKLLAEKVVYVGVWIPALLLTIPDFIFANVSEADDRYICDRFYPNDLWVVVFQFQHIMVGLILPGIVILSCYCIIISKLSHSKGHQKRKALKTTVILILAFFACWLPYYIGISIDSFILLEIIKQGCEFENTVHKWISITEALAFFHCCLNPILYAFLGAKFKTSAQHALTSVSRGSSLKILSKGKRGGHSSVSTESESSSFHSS

| Binder | IC50 (CCR7 on CHO-K1 cells [1]) [nM] | IC50 (CCR7 on CHO-K1 cells [2]) [nM] | IC50 (CCR7 on CHO-K1 cells [3]) [nM] | EC50 of calcium mobilization (aequorin assay), CHO-K1 cells expressing CCR7 only (CCR7 on CHO-K1 cells [4]) [nM] | BRET50, fold against the CXCR4 homomer (CXCR4-hRLuc / CXCR4-EYFP) [fold] | BRET50, fold against the CCR7 homomer (CCR7-hRLuc / CCR7-EYFP) [fold] |
| --- | --- | --- | --- | --- | --- | --- |
| B1 | 0.27 | 6.85 | 2.42 | 7.66 |  |  |
| B2 |  |  |  |  | 2 | 2 |
